Assay: yeast display, Sf9 membrane polyspecificity reagent, FACS + sequencing; frameworks hold sequencing errors
Method in brief: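 Polyreactivity labels are assigned by the sorting gate from which each nanobody was recovered. The gates were low and high (top ~1%), set on anti-HA fluorescence for expression and streptavidin fluorescence for reagent binding. Before sorting, galactose-induced (36–48 hours) yeast display cells were stained for 1 hour at 4 °C with 10% biotinylated, detergent-solubilized Sf9 membrane reagent.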
With “QVQLVESGGVLVQAGGSLRLSCAASGSIFGLYAMGWYRQAPGKERELVAAISRRSVSTYYADSVKGRFTISRDNAKNTVYLQMNSLKPEDTAVYYCAAVTYPYLRSQKGYDGYGYWGHGTQVTVSS” the “polyreactivity (PSR sort gate)” value was “high polyreactivity”.
With “QVQLVESGGVLVQAGGSLRLSCAASGSIFGVYTMGWYRQAPGKERELVAAISGSGGSTYYADSVKGRFTISRDNAMNTVYLQMNSLKPEDTAVYYCATRFPKIPPYDSWGQGTQVTVSS” the “polyreactivity (PSR sort gate)” value was “low polyreactivity”.
In the case of “QVQLVESGGVLVQAGGSLRLSCAASGSIFTYYAMGWYRQAPGKEREFVAAISRSGGSTYYADSVKGRFTISRDNANNTVYLQMNSLKPEDTAVYYCNAYSYSDAGDDGDYWGQGTQVTVSS”, the “polyreactivity (PSR sort gate)” value is reported as “low polyreactivity”.
In the case of “QVQLVESGGVLVQAGGSLRLSCAASGSIFVPYAMGWYRQAPGKERELVAAISSGGSTNYADSVKGRFTISRDNAKNTVYLLMNSLKPEDTAVYYCAADRKYFYLWLDQEHRYYWGQGYQVTVSS”, the “polyreactivity (PSR sort gate)” value is reported as “low polyreactivity”.
With “QVQLVESGGVLVQAGGSLRLSCAASGSISFNAMGWYRQAPGKERELVAAITTSGGRTYYADSVKGRLTISRDNAKNTVSLQMNSLKPEDTAVYYCNVASKGRFARYAAEYVSWRQGTQVTVSS” the “polyreactivity (PSR sort gate)” value was “high polyreactivity”.
In the case of “QVQLVESGGVLVQAGGSLRLSCAASGSTFDSYAMGWYRQAPGKERELVAAISYGGGSTYYADSVKGRFTISRDNAKNTVYLQMNSLKPEDTAVYYCAARNARGVVGRTESKVTYDYWGQGTQVTVSS”, the “polyreactivity (PSR sort gate)” value is reported as “high polyreactivity”.
With “QVQLVESGGVLVQAGGSLRLSCAASGSTFGANAMGWNREAPGKEREFVAAISGSGTTTYYADSVKGRFTISRDNAKNSVYLHLNSLKQEDTAVYYCAKTRKAHWLEYWGQGTKVTVSS” the “polyreactivity (PSR sort gate)” value was “low polyreactivity”.
In the case of “QVQLVESGGVLVQAGGSLRLSCAASGSTFGWYAMGWYRQAPGKERELVAAITSVGSTYYADYVKGRFTISRDNAKNTVYLQMNSLKPEDTAVYYCAAGWTYAYTLSLYEYWGQGTQVTVSS”, the “polyreactivity (PSR sort gate)” value is reported as “low polyreactivity”.
With “QVQLVESGGVLVQAGGSLRLSCAASGSTFSTNAMGWYRQAPGKEREFVAAITWSGDSTDYADSVKGRFTISRDNAKNTVYLQMNSLKPEDTAVYYCAADFPGFYYVYPGDYWGQGTQVTVSS” the “polyreactivity (PSR sort gate)” value was “low polyreactivity”.
In the case of “QVQLVESGGVLVQAGGSLRLSCAASGSTFYGYAMGWYRQAPGKERELVAAITRSGGSTYYADSVKGRFTISRDNAKNTVYLQMNSLKPEDTAVYYCARQDRDTYYHRYYYWGQGTQVTVSS”, the “polyreactivity (PSR sort gate)” value is reported as “high polyreactivity”.
With “QVQLVESGGVLVQAGGSLRLSCAASGSTSYNNAMGWYREAPGKEREFVAAISSNGDRTYYADSVKGRFTISRDNPKNTVYLLMNSLKPEDTAVFYCAVRSWYNYEWGQGTQVTVSS” the “polyreactivity (PSR sort gate)” value was “high polyreactivity”.
In the case of “QVQLVESGGVLVQAGGSLRLSCAASGYIFSLNGMGWYRQAPGKERELVAAITVSGGRTYYADSVKGRFTISRDNAKNTVYLQMNSLKPEDTAVYYCAKRGKYSYWPYYKYDYWGQGTQVTVSS”, the “polyreactivity (PSR sort gate)” value is reported as “high polyreactivity”.
With “QVQLVESGGVLVQAGGSLRLSCAASVFIFPYYAMGRYRQEPGKEMELVAAISSGGITNYADSVKGRFTISRDNSKNTVYLQMNSLKPEDTAVYYCAAKRRVGNFRYGYWGQGTQVTVSS” the “polyreactivity (PSR sort gate)” value was “high polyreactivity”.
With “QVQLVESGGVLVQAGGSLRLSCAAYGSNFVRNGMGWYRQAPGKEREFVASITSGTITYYADSVKGRFTISRDNAKNTVYLQMNSLKPEDTAVYYCNAGCRSSRFKRPYFRERNYWGQGTQLTVSS” the “polyreactivity (PSR sort gate)” value was “high polyreactivity”.
With “QVQLVESGGVLVQAGGSLRLSSAASGGTFWYYAMGMYRQEPGKERELVASISRGGSTNYADSVKGRFTISRDKAKHTVDLQMNRLKPEDTAVYYCIAGLRVGPRRYVDYEYDYWGQGSQVTVSS” the “polyreactivity (PSR sort gate)” value was “low polyreactivity”.
For “QVQLVESGGVLVQAGGSLRLTCAASGRIFQNYAMGWYRQAPAKERELDATISSGVSTYYADSVKGRFTISRDNAKNTVYLQMNSLKPEDTAVYYCAAYVPWFEMDYWGQGTQVTVSS”, the “polyreactivity (PSR sort gate)” value was “low polyreactivity”.
In the case of “QVQLVESGGVLVQAGGSLRLTCAASGSTFLYNAMGWYRQAPGKEREFVAAISGSGGTTYYADSVKGRFTISRDNAKNTVYLQMNSLKPEDTAVYYCAVSQSWYWYYASDYWGQGTQVTVSS”, the “polyreactivity (PSR sort gate)” value is reported as “low polyreactivity”.
In the case of “QVQLVESGGVLVQARVSLRLSCAASGLTIYYYAMGWYRQAPGQERELVAAITWRGGSTYYADSVKGRFTISRDNEKNTVYLQMISLKPEVTAVYYCAADPGPYGYYYWGLGTQVTVSS”, the “polyreactivity (PSR sort gate)” value is reported as “low polyreactivity”.
With “QVQLVESGGVLVQSGGSLRLSCAASGFIFYDYAMGWYRQAPGKEREMVAAITSGGSTYYADSVKGRFTISRDNAKNTVYLQMKSLKPEDTAVYYCAADAYNLDDDTYDYWGQGTIVTVSS” the “polyreactivity (PSR sort gate)” value was “low polyreactivity”.
For “QVQLVESGGWLVQAGGSLRLRCAASGRIFSRYAMGWYRQAPGKEWELVAAISWSGGSTYYADSVKGRFTISRDNAKNTVYLQMNSLKPEDTAVYYCAAKRQYTEYNYWGQGSQVTVSS”, the “polyreactivity (PSR sort gate)” value was “high polyreactivity”.
In the case of “QVQLVESGGWLVQAGGSLRLSCAASGSTFEDYVMGWYRQAPGTEREFVAAISRGSGSTYYADSVKGRFTISRDNAKNTVFLQMNSLKPEDTAVYYCAARSQLGYRTRYPTYYWGQGTQVTVSS”, the “polyreactivity (PSR sort gate)” value is reported as “high polyreactivity”.
For “QVQLVESGIGLVQAGGSLSLSCAASGFNLDTYGMGWYRQAPGKERELVAAISQSDVSTYYADSVKGRFTISRDNAKNTVYLQMNSLKPEDTAVYYCAADRGGLRWFWQVLYEYWGQGTQVTVSS”, the “polyreactivity (PSR sort gate)” value was “low polyreactivity”.
For “QVQLVESGLGLVQAGGSLRISCAASGRIFYYNAMGWYRQAPGKERELVARIRRSGGRTYYADSVKGRFTISRDNAKNTVYLLMNSLKPADTAVYYCAARRQGRSGNGSWGQGTQVTVSW”, the “polyreactivity (PSR sort gate)” value was “high polyreactivity”.
With “QVQLVESGLGLVQEGGCLRVSCAASGSIFSHYAMGWDSQAPGKDREVVAAITGGGITYYADSVKGRFTISRDNAKNTVYLQMNSLIPEDTAVYYWATDSLIFTIFDYSGQGTQVTVSS” the “polyreactivity (PSR sort gate)” value was “low polyreactivity”.
In the case of “QVQLVESGPGLVQAGVSLRLSCAASGSIFAYYAMGWYRQAPGKERELVAAISSRGGNTYYADSVKGRFTISRHYAKNSVYLQMNSLKPEDTAVYYCAADYQYSYGEYDYWGQGTQVTVSS”, the “polyreactivity (PSR sort gate)” value is reported as “high polyreactivity”.
In the case of “QVQLVESGQGLVQAGGSLRLSCAASGFTFWGYTMGWYRQAPGKERELVAGITLSGGSTYYADSVKGRFTISRDNAKNTVYLEMNSLKPEDTAVYYCAAKPYQVSSYDFSLRDYWGQGTQVTVSS”, the “polyreactivity (PSR sort gate)” value is reported as “low polyreactivity”.
In the case of “QVQLVESGRGIVQAGGSLRLSCAASGSIFLHNAMGWYRQAPGKETELVAAITGSGGYTYYADSVKGRFTISRDNPKNTVYIQMNSRQPEDTAVYYCAACSRSRYYRYVYYQYVTMDYWGQGTQETVSS”, the “polyreactivity (PSR sort gate)” value is reported as “high polyreactivity”.
In the case of “QVQLVESGRGLFQAGGSLRLSCAPSGIIIVNYAMGWYRQAPGKERELVAAITTSGGSTYYADSVKGRFTISRDHAKNTVYLQMNSLKPEDTAVYDCAKKSSLFKHVVRYDYWGQGTQVTVSS”, the “polyreactivity (PSR sort gate)” value is reported as “low polyreactivity”.
For “QVQLVESGRGLVHAGGSHRISCAASGRTFYYYAMGWYRQAPGKERELVAAITRGGSTNYADSVKGRFTISRDNAKITVYLQMNSLKPEDTAVYYCAQPWFYQNRGYDYWGQGTQVTVSS”, the “polyreactivity (PSR sort gate)” value was “low polyreactivity”.
For “QVQLVESGRGLVQAAGSLRLSCASSGSTYFGNTMVWYRQAPGKERELVATITRRGGTTYYADSVKGRFTISRDNAKNSVFLQMNSLKPEDTAVYYCAKRGPYTKYDYWGQGTQVTVSS”, the “polyreactivity (PSR sort gate)” value was “low polyreactivity”.
For “QVQLVESGRGLVQAGGSLRISCAASGSTFGYYAMGWYRQAPGKERELVAAITSTGRTKYADSVKGRFTISRDNAKNTVYLQMNSLKPEDTAVYYCAADIWGQGTQVTVSS”, the “polyreactivity (PSR sort gate)” value was “high polyreactivity”.
In the case of “QVQLVESGRGLVQAGGSLRISCAPSGITFGRYVMGWYRQAPGKERELVAVISRGGSTNYADSVKGRFTIARDNAKNTDYLQMNSLKPEDSAVYYCAADEWIVHDGYYSSYYYWGQGTQVTVSS”, the “polyreactivity (PSR sort gate)” value is reported as “low polyreactivity”.
With “QVQLVESGRGLVQAGGSLRLICAASGSIFFYYAMGWYRQAPGKERELVAVITSGGSTNYADSVKGRFTISRDNAKNTVYLQMNSLKPEDTAVYYCNADGYGYFTVREFLDYDYWGQGTQVTVSS” the “polyreactivity (PSR sort gate)” value was “low polyreactivity”.
With “QVQLVESGRGLVQAGGSLRLSCAACGRIFYRYTMGSYRQAPGKERELVAAITRGGNTYYADSVKGRFTISRDNANYTVYLQMNSLKPEDTAVYYCAKKAPSDRNNYWGQGTQVTVSS” the “polyreactivity (PSR sort gate)” value was “high polyreactivity”.
In the case of “QVQLVESGRGLVQAGGSLRLSCAASAVSFISYAMGWYRQAPGKERELVAAISRGGSSTYYADSVKGRFTISRDNAKNTVYLQMNSLKPEDTAVYYCNKAYHRRDSEFGYSGQGTQVTVSS”, the “polyreactivity (PSR sort gate)” value is reported as “high polyreactivity”.
For “QVQLVESGRGLVQAGGSLRLSCAASGFIFAYYAMGWYRQAPGKERELVAAITRSGGGTKYADSVKGRFTISRDNAKNTVYLHMNSLKPEDTAVYYCAARWYRQLRDLDYWGQGTQVTVSS”, the “polyreactivity (PSR sort gate)” value was “high polyreactivity”.
With “QVQLVESGRGLVQAGGSLRLSCAASGFTFGYYAMGWYRQAPGKERELVAAISASGASTYYADSVKGRFTISRDNAKNTVYLQMTSLKPEDTAVYYCAARPGQLTSPVTRTRYNYWGQGTQVTVSS” the “polyreactivity (PSR sort gate)” value was “low polyreactivity”.
In the case of “QVQLVESGRGLVQAGGSLRLSCAASGFTFYYYANGWYRQAPGKERELVAAISIGGSTYYADSVKGRFTISRDNAKNTVYLQMNCLKPEDTAVYYCNVVFTYWPPGTARYDYWGQGTQVTVSS”, the “polyreactivity (PSR sort gate)” value is reported as “high polyreactivity”.
In the case of “QVQLVESGRGLVQAGGSLRLSCAASGFTLWIYAKGWYRQAPGKESELVAAITWSTGSTYYADSVKGRFTISRDNAKNTVYLLMNSLKPEDTAVYYCPAEFHWWYAGYDYGYWGQGTQVTVSS”, the “polyreactivity (PSR sort gate)” value is reported as “low polyreactivity”.
In the case of “QVQLVESGRGLVQAGGSLRLSCAASGFTQPANGMGWYRQAPGIERELVAAISFIAGSTYYADSVKGRFTISRDNAKNTVYLQMNSLKPEDTAVYYCATLFPPSTIYDYWGQGTQVTVSS”, the “polyreactivity (PSR sort gate)” value is reported as “low polyreactivity”.
For “QVQLVESGRGLVQAGGSLRLSCAASGIIFGGYSMGWYRQAPGKERELVAAISGIGSRTYYADSVKGRFTISRDNAKNTVYLQMNSLKPEDTAVYYCNADQVYGYNYWGQGTQVTVSS”, the “polyreactivity (PSR sort gate)” value was “high polyreactivity”.
For “QVQLVESGRGLVQAGGSLRLSCAASGIIFYENAMGWYRQAPGKERELVADITQSGGSTYYADSVKGRFTISRDNAKNTVYLQMNSLKPEDTAVYYCAADGYDPYGGLYDYWGQGTQVTVSS”, the “polyreactivity (PSR sort gate)” value was “low polyreactivity”.
With “QVQLVESGRGLVQAGGSLRLSCAASGRIFRYYAMGWYRQAPGKERELVATITDGGSTSYADSVKGRFTISRDNAKNTVYLQMNSLKPEDTAVYYCARDPLPSYWKVWSRPTFDYWGQGTQVTVSS” the “polyreactivity (PSR sort gate)” value was “low polyreactivity”.

Reference: the nanobody polyreactivity screen of Harvey et al. (2022)
